# Reference: article PMC8849478
# How the values were obtained:
# [1] = target: human haptoglobin, mixture of phenotypes Hp2-1 and Hp2-2 (human) (UniProt P00738); experiment: stopped-flow fluorescence spectrometry; Hp (0.25 μM, Hb tetramer binding basis) rapidly mixed with excess Hb/metHb at various concentrations; excitation 285 nm, emission 310 nm; monoexponential fit gives pseudo first order constants, linear regression against Hb/metHb concentration gives the bimolecular rate constant
# [2] = target: human hemoglobin (human) (UniProt P69905); experiment: SEC; tetramer to dimers; SEC-HPLC of samples at 1.25, 2.5, 5, 10 and 20 μM (heme basis) after incubation in 0.1 M PBS pH 7.4 at 4°C for one week; fraction of tetramers by deconvolution, Kd from the intercept of the linearised plot (Eq 3)
# [3] = target: human methemoglobin (human) (UniProt P69905); experiment: as above
# Chain of bovine hemoglobin (P01966 whole entry): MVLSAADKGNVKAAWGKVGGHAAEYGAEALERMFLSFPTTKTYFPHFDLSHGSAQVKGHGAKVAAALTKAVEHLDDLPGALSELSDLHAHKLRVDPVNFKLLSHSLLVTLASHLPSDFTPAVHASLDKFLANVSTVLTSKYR
# Chain of bovine hemoglobin (P02070 whole entry): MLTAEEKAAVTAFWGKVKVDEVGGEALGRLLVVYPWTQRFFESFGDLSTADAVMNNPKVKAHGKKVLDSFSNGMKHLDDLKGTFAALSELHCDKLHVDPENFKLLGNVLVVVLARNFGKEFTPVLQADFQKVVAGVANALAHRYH
# Chain of bovine methemoglobin (P01966 whole entry): as the sequence (P01966 whole entry) above
# Chain of bovine methemoglobin (P02070 whole entry): as the sequence (P02070 whole entry) above
# Chain of human hemoglobin, P69905 1-142; P68871 1-147 (complex; other documents disagree on this pair) (P69905 whole entry): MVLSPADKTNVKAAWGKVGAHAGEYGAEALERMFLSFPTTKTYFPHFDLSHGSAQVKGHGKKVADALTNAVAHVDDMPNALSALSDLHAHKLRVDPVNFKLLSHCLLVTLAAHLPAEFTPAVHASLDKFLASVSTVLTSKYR
# Chain of human hemoglobin, P69905 1-142; P68871 1-147 (complex; other documents disagree on this pair) (P68871 whole entry): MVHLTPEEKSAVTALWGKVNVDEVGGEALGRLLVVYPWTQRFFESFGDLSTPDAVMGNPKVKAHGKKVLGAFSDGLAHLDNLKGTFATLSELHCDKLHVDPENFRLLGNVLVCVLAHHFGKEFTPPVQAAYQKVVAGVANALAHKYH
# Chain of human methemoglobin, P69905 1-142; P68871 1-147 (complex; other documents disagree on this pair) (P69905 whole entry): as the sequence (P69905 whole entry) above
# Chain of human methemoglobin, P69905 1-142; P68871 1-147 (complex; other documents disagree on this pair) (P68871 whole entry): as the sequence (P68871 whole entry) above
Substance,kon [1] [M⁻¹ s⁻¹],further results
bovine methemoglobin (from UniProt P01966 1-142; P02070 1-145) (complex),140000,–
"human hemoglobin, P69905 1-142; P68871 1-147 (complex; other documents disagree on this pair)",–,Kd [2]: 0.23 µM
"human methemoglobin, P69905 1-142; P68871 1-147 (complex; other documents disagree on this pair)",–,Kd [3]: 0.45 µM
bovine hemoglobin (from UniProt P01966 1-142; P02070 1-145) (complex),147000,–
